Assay results published in the supplement of paper PMC7125110.
± gives the standard error. For some of these results: Fewer inactive variants are shown than the library holds.

B1: glmS ribozyme (parent)
chain: AUAAAAGCGCCAGAACUACAGAAAUGUAGUUGACGAGGAGGAGGUUUAUCGAAUUUUCGGCGGAUGCCUCCAAA

Key:
Details in all cases: with glucosamine-6-phosphate
glucosamine-6-phosphate [1] = variants of: B1; test: kcat; higher = faster cleavage; RNA array
How it was run: (§1)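 Using a hybridised Cy3 probe at 37 °C, barcoded ribozyme variants transcribed in situ by E. coli RNA polymerase on sequenced MiSeq chips were monitored across tiles imaged over ~14 h. The flow contained glucosamine-6-phosphate from 40 μM to 10 mM in HEPES/KCl/Mg(OAc)2 buffer. Signals were normalised to baseline and to non-cleaving reference variants before per-tile medians were fit to one- or two-exponential decays to yield kobs. Weighted Michaelis–Menten fits across concentrations gave kcat and KM.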

glucosamine-6-phosphate [2] = variants of: B1; test: self-cleavage kobs at 2500 uM GlcN6P; higher = faster cleavage; RNA array
How it was run: as §1

glucosamine-6-phosphate [3] = variants of: B1; test: self-cleavage kobs at 10000 uM GlcN6P; higher = faster cleavage; RNA array
How it was run: as §1

glucosamine-6-phosphate [4] = variants of: B1; test: KM; higher = weaker cofactor use; RNA array
How it was run: as §1

glucosamine-6-phosphate [5] = variants of: B1; test: self-cleavage kobs at 40 uM GlcN6P; higher = faster cleavage; RNA array
How it was run: as §1

glucosamine-6-phosphate [6] = variants of: B1; test: self-cleavage kobs at 160 uM GlcN6P; higher = faster cleavage; RNA array
How it was run: as §1

glucosamine-6-phosphate [7] = variants of: B1; test: self-cleavage kobs at 640 uM GlcN6P; higher = faster cleavage; RNA array
How it was run: as §1

Row | Variant | kcat (glucosamine-6-phosphate [1]) [s⁻¹] | self-cleavage kobs at 2500 uM GlcN6P (glucosamine-6-phosphate [2]) [s⁻¹] | self-cleavage kobs at 10000 uM GlcN6P (glucosamine-6-phosphate [3]) [s⁻¹] | KM (glucosamine-6-phosphate [4]) [µM] | self-cleavage kobs at 40 uM GlcN6P (glucosamine-6-phosphate [5]) [s⁻¹] | self-cleavage kobs at 160 uM GlcN6P (glucosamine-6-phosphate [6]) [s⁻¹] | self-cleavage kobs at 640 uM GlcN6P (glucosamine-6-phosphate [7]) [s⁻¹]
1 | A12U A48U C70A | 5.26e-05 ± 1.7e-05 | 6.36e-05 ± 2e-05 | 4.16e-05 ± 1.5e-05 |  |  |  | 
2 | A12C U56A | 0.0197 ± 0.004 | 0.0059 ± 0.00083 | 0.0135 ± 0.0011 | 4980 ± 1400 | 0.00021 ± 2.5e-05 | 0.000528 ± 7.5e-05 | 0.00217 ± 0.00031
3 | A12U U69A | 0.000227 ± 4.2e-05 | 0.000186 ± 2.9e-05 | 0.000303 ± 4.8e-05 |  | 0.000106 ± 1.6e-05 | 0.000124 ± 2.9e-05 | 0.000292 ± 4.6e-05
4 | G13A C70A | 2.43e-05 ± 6.3e-06 |  |  |  |  |  | 
5 | A12U A42U | 0.000531 ± 7.4e-05 | 0.000402 ± 3.2e-05 | 0.000411 ± 4.6e-05 | 1240 ± 330 |  | 5.09e-05 ± 7.4e-06 | 0.000198 ± 1.9e-05
6 | A12G U65G C67A | 0.000136 ± 1.4e-05 | 6.02e-05 ± 1.2e-05 | 0.000108 ± 3.2e-05 | 3010 ± 610 |  |  | 
7 | G13A C68U | 6.42e-05 ± 2.2e-06 | 5.81e-05 ± 9e-06 | 6.26e-05 ± 5.5e-06 | 234 ± 85 |  |  | 5.07e-05 ± 1.2e-05
8 | A12U U55C | 0.0176 ± 0.0056 | 0.0186 ± 0.0045 | 0.0162 ± 0.0029 | 464 ± 200 | 0.0016 ± 0.00016 | 0.00304 ± 0.00062 | 0.0204 ± 0.0053
9 | A12U G40A C71U | 0.101 ± 0.05 |  | 0.116 ± 0.047 |  | 0.00209 ± 0.0003 |  | 0.0194 ± 0.007
10 | A12U U56C | 0.0355 ± 0.014 |  | 0.0251 ± 0.0075 | 2940 ± 1400 | 0.000487 ± 0.00011 | 0.00159 ± 0.00028 | 0.00808 ± 0.0013
11 | A12U U56G | 0.0516 ± 0.013 |  | 0.0461 ± 0.011 | 1320 ± 390 | 0.00172 ± 0.0002 | 0.00468 ± 0.00073 | 0.0197 ± 0.0057
12 | A12U C16G G40C | 0.000662 ± 7.1e-05 | 0.000322 ± 0.00011 | 0.000481 ± 9.8e-05 | 3490 ± 700 |  |  | 9.91e-05 ± 3.2e-05
13 | A12U U65C | 0.0021 ± 0.00079 | 0.00209 ± 0.00035 | 0.00151 ± 0.00034 |  | 4.28e-05 ± 1.2e-05 | 0.000217 ± 5.2e-05 | 0.000421 ± 9.9e-05
14 | A12U U65A | 0.0089 ± 0.0024 | 0.00391 ± 0.00071 | 0.00799 ± 0.0012 | 2460 ± 840 | 0.000192 ± 2.4e-05 | 0.000483 ± 5.8e-05 | 0.00176 ± 0.00027
